From PMC9482650, “Quantitative fragmentomics allow affinity mapping of interactomes” (Nature Communications, 2022)

Key:
Experiment in all cases: holdup assay
Design in all cases: key: below the threshold = too weak to quantify, mostly under pKd 3.1 to 4
Conditions in all cases: plain residues with an end cap or a label only (N-terminal biotin on a linker: ado-ado)
Inadl_5, Q8NI35 = target: Inadl_5, Q8NI35
GRIP2_6, Q9C0E4 = target: GRIP2_6, Q9C0E4
APBA3_1, O96018 = target: T1, APBA3_1, O96018
T1 sequence (O96018 389-490, limits assumed, looked up): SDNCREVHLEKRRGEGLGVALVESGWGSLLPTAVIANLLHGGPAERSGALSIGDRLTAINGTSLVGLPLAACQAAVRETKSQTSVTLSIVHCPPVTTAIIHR

GRIP2_5, Q9C0E4 = target: GRIP2_5, Q9C0E4
Sequence of GRIP2_5, Q9C0E4 (Q9C0E4 544-642): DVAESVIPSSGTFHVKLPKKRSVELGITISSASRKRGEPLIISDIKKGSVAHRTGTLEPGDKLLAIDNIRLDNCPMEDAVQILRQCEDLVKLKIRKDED

GRIP1_7, Q9Y3R0 = target: T2, GRIP1_7, Q9Y3R0
T2 sequence (Q9Y3R0 999-1096, limits assumed, looked up): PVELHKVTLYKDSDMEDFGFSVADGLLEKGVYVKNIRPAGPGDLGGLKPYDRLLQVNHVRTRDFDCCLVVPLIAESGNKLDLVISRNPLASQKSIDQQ

LNX2_3, Q8N448 = target: T3, LNX2_3, Q8N448
T3 sequence (Q8N448 463-564, limits assumed, looked up): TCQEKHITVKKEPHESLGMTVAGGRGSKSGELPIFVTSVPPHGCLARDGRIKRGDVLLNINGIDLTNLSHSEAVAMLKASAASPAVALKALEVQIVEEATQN

APBA2_1, Q99767 = target: T4, APBA2_1, Q99767
T4 sequence (Q99767 563-664, limits assumed, looked up): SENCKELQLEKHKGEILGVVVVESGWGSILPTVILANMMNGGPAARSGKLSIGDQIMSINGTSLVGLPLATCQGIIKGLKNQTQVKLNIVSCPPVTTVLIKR

Inadl_2, Q8NI35 = target: Inadl_2, Q8NI35
Sequence of Inadl_2, Q8NI35 (Q8NI35 238-335): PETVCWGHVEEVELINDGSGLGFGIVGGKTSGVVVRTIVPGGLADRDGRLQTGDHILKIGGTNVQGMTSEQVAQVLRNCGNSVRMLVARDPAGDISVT

RAPGEF6, Q8TEU7 = target: T5, RAPGEF6, Q8TEU7
T5 sequence (Q8TEU7 525-625, limits assumed, looked up): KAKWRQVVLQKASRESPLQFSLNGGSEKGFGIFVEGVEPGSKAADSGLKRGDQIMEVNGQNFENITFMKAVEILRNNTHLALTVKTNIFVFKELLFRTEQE

SNTG1, Q9NSN8 = target: T6, SNTG1, Q9NSN8
T6 sequence (Q9NSN8 52-150, limits assumed, looked up): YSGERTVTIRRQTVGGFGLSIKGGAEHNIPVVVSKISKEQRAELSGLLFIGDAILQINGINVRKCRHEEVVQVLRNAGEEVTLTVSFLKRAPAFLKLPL

PDZD2_2, O15018 = target: T7, PDZD2_2, O15018
T7 sequence (O15018 329-429, limits assumed, looked up): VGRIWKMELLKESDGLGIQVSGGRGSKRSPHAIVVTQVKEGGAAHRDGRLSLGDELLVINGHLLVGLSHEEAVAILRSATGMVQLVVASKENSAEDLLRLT

HTRA4, P83105 = target: T8, HTRA4, P83105
T8 sequence (P83105 378-476, limits assumed, looked up): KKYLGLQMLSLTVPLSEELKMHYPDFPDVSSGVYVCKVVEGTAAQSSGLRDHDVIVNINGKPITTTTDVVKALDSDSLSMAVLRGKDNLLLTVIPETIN

PDLIM1, O00151 = target: PDLIM1, O00151
Sequence of PDLIM1, O00151 (O00151 1-87): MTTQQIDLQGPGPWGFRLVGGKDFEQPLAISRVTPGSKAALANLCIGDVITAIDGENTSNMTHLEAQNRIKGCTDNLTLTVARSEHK

MPP6, Q9NZW5 = target: T9, MPP6, Q9NZW5
T9 sequence (Q9NZW5 125-219, limits assumed, looked up): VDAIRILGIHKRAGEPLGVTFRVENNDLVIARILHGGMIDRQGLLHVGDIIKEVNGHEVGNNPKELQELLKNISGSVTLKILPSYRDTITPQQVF

DLG4_1, P78352 = target: DLG4_1, P78352
Sequence of DLG4_1, P78352 (P78352 62-152): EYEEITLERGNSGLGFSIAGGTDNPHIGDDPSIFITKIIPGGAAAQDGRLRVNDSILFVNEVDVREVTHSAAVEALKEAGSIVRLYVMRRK

LIMK2, P53671 = target: LIMK2, P53671
Sequence of LIMK2, P53671 (P53671 143-248): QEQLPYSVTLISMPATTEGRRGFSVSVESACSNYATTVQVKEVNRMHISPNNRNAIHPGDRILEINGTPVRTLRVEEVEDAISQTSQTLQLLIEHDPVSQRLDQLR

TJP1_3, Q07157 = target: TJP1_3, Q07157
Sequence of TJP1_3, Q07157 (Q07157 416-512): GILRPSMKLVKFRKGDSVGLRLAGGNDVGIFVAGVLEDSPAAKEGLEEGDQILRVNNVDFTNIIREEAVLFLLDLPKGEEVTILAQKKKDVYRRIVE

Inadl_3, Q8NI35 = target: Inadl_3, Q8NI35
Sequence of Inadl_3, Q8NI35 (Q8NI35 359-469): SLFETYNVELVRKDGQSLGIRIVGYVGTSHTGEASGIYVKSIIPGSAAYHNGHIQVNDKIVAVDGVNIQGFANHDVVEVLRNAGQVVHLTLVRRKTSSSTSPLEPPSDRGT

DLG1_1, Q12959 = target: DLG1_1, Q12959
SNTB1, Q13884 = target: T10, SNTB1, Q13884
T10 sequence (Q13884 107-205, limits assumed, looked up): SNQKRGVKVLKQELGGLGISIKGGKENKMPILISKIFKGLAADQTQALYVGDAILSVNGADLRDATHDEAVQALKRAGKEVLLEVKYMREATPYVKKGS

TIAM2, Q8IVF5 = target: T11, TIAM2, Q8IVF5
T11 sequence (Q8IVF5 885-986, limits assumed, looked up): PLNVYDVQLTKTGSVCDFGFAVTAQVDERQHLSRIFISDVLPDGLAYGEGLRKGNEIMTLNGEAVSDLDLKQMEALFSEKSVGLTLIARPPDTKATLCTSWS

GRIP2_4, Q9C0E4 = target: GRIP2_4, Q9C0E4
Sequence of GRIP2_4, Q9C0E4 (Q9C0E4 446-548): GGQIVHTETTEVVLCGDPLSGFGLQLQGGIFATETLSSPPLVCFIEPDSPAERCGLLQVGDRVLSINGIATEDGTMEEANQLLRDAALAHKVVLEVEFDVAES

DLG5_1, Q8TDM6 = target: DLG5_1, Q8TDM6
Sequence of DLG5_1, Q8TDM6 (Q8TDM6 617-713): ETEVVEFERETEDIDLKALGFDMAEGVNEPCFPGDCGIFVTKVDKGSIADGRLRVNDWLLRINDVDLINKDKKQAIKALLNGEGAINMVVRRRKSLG

FRMPD2_2, Q68DX3 = target: FRMPD2_2, Q68DX3
Sequence of FRMPD2_2, Q68DX3 (Q68DX3 944-1038): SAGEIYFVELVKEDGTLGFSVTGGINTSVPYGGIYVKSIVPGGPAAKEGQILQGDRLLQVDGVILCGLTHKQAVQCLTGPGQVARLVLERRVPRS

RADIL, Q96JH8 = target: T12, RADIL, Q96JH8
T12 sequence (Q96JH8 971-1071, limits assumed, looked up): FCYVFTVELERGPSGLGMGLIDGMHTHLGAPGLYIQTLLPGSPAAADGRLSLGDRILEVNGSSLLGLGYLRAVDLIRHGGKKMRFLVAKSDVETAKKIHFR

Sequence of Inadl_5, Q8NI35 (Q8NI35 673-780): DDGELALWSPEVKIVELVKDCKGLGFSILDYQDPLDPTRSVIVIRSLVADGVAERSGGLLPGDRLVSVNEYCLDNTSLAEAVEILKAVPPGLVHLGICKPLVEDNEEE
Sequence of GRIP2_6, Q9C0E4 (Q9C0E4 648-740): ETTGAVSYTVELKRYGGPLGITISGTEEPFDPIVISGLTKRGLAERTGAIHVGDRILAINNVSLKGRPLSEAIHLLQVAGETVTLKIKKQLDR

NHSSSPETTA [TRMT13, Q9NUP7]
pKd (Inadl_5, Q8NI35): below the threshold | pKd (GRIP2_6, Q9C0E4): below the threshold | pKd (APBA3_1, O96018): below the threshold | pKd (GRIP2_5, Q9C0E4): below the threshold | pKd (GRIP1_7, Q9Y3R0): below the threshold | pKd (LNX2_3, Q8N448): below the threshold | pKd (APBA2_1, Q99767): below the threshold | pKd (Inadl_2, Q8NI35): below the threshold | pKd (RAPGEF6, Q8TEU7): below the threshold | pKd (SNTG1, Q9NSN8): below the threshold | pKd (PDZD2_2, O15018): below the threshold | pKd (HTRA4, P83105): below the threshold | pKd (PDLIM1, O00151): below the threshold | pKd (MPP6, Q9NZW5): below the threshold | pKd (DLG4_1, P78352): below the threshold | pKd (LIMK2, P53671): below the threshold | pKd (TJP1_3, Q07157): below the threshold | pKd (Inadl_3, Q8NI35): below the threshold | pKd (DLG1_1, Q12959): below the threshold | pKd (SNTB1, Q13884): below the threshold | pKd (TIAM2, Q8IVF5): 4.02 | pKd (GRIP2_4, Q9C0E4): below the threshold | pKd (DLG5_1, Q8TDM6): below the threshold | pKd (FRMPD2_2, Q68DX3): below the threshold | pKd (RADIL, Q96JH8): below the threshold

PAPSSGKDYV [CLDN1, O95832]
pKd (Inadl_5, Q8NI35): below the threshold | pKd (GRIP2_6, Q9C0E4): below the threshold | pKd (APBA3_1, O96018): below the threshold | pKd (GRIP2_5, Q9C0E4): below the threshold | pKd (GRIP1_7, Q9Y3R0): 3.87 | pKd (LNX2_3, Q8N448): below the threshold | pKd (APBA2_1, Q99767): below the threshold | pKd (Inadl_2, Q8NI35): below the threshold | pKd (RAPGEF6, Q8TEU7): below the threshold | pKd (SNTG1, Q9NSN8): below the threshold | pKd (PDZD2_2, O15018): 4.59 | pKd (HTRA4, P83105): below the threshold | pKd (PDLIM1, O00151): below the threshold | pKd (MPP6, Q9NZW5): 3.88 | pKd (DLG4_1, P78352): 3.6 | pKd (LIMK2, P53671): below the threshold | pKd (TJP1_3, Q07157): below the threshold | pKd (Inadl_3, Q8NI35): below the threshold | pKd (DLG1_1, Q12959): below the threshold | pKd (SNTB1, Q13884): below the threshold | pKd (TIAM2, Q8IVF5): below the threshold | pKd (GRIP2_4, Q9C0E4): below the threshold | pKd (DLG5_1, Q8TDM6): below the threshold | pKd (FRMPD2_2, Q68DX3): below the threshold | pKd (RADIL, Q96JH8): 4

QGLAERISVL [PRKD2, Q9BZL6]
pKd (Inadl_5, Q8NI35): below the threshold | pKd (GRIP2_6, Q9C0E4): below the threshold | pKd (APBA3_1, O96018): below the threshold | pKd (GRIP2_5, Q9C0E4): below the threshold | pKd (GRIP1_7, Q9Y3R0): below the threshold | pKd (LNX2_3, Q8N448): below the threshold | pKd (APBA2_1, Q99767): below the threshold | pKd (Inadl_2, Q8NI35): below the threshold | pKd (RAPGEF6, Q8TEU7): below the threshold | pKd (SNTG1, Q9NSN8): 3.54 | pKd (PDZD2_2, O15018): 4.32 | pKd (HTRA4, P83105): 4.06 | pKd (PDLIM1, O00151): below the threshold | pKd (MPP6, Q9NZW5): below the threshold | pKd (DLG4_1, P78352): below the threshold | pKd (LIMK2, P53671): below the threshold | pKd (TJP1_3, Q07157): below the threshold | pKd (Inadl_3, Q8NI35): 3.64 | pKd (DLG1_1, Q12959): below the threshold | pKd (SNTB1, Q13884): 4.92 | pKd (TIAM2, Q8IVF5): below the threshold | pKd (GRIP2_4, Q9C0E4): below the threshold | pKd (DLG5_1, Q8TDM6): below the threshold | pKd (FRMPD2_2, Q68DX3): below the threshold | pKd (RADIL, Q96JH8): 3.99

EVEEFPETSV [TRPV3, Q8NET8]
pKd (Inadl_5, Q8NI35): 3.56 | pKd (GRIP2_6, Q9C0E4): below the threshold | pKd (APBA3_1, O96018): below the threshold | pKd (GRIP2_5, Q9C0E4): below the threshold | pKd (GRIP1_7, Q9Y3R0): 3.48 | pKd (LNX2_3, Q8N448): 3.62 | pKd (APBA2_1, Q99767): below the threshold | pKd (Inadl_2, Q8NI35): below the threshold | pKd (RAPGEF6, Q8TEU7): 3.64 | pKd (SNTG1, Q9NSN8): 5.53 | pKd (PDZD2_2, O15018): 4.99 | pKd (HTRA4, P83105): below the threshold | pKd (PDLIM1, O00151): 3.6 | pKd (MPP6, Q9NZW5): below the threshold | pKd (DLG4_1, P78352): 4.36 | pKd (LIMK2, P53671): below the threshold | pKd (TJP1_3, Q07157): 3.5 | pKd (Inadl_3, Q8NI35): 3.72 | pKd (DLG1_1, Q12959): 4.25 | pKd (SNTB1, Q13884): 5.23 | pKd (TIAM2, Q8IVF5): below the threshold | pKd (GRIP2_4, Q9C0E4): 3.55 | pKd (DLG5_1, Q8TDM6): 3.7 | pKd (FRMPD2_2, Q68DX3): 5.16 | pKd (RADIL, Q96JH8): 3.81
